Measurements: publication PMC4161438 (PLoS Pathogens, 2014)
Where no end group is shown, it is not given here.

T1: elastase (Homo sapiens, UniProt P08246)
T1 construct: purchased Elastin Products Company, Inc. (Owensville, MO, USA)
T1 sequence (P08246 30-267): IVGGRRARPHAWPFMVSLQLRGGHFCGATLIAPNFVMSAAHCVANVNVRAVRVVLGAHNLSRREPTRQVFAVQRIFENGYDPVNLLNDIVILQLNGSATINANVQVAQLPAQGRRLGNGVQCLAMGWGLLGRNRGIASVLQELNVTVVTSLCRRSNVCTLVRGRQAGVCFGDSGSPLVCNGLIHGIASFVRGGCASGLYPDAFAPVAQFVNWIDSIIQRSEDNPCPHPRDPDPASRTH

B1: DNAse: DNAse (Dornase alfa, Genentech Inc.) (protein, UniProt P24855 23-282, looked up)
Deoxyribonuclease-1: LKIAAFNIQTFGETKMSNATLVSYIVQILSRYDIALVQEVRDSHLTAVGKLLDNLNQDAPDTYHYVVSEPLGRNSYKERYLFVYRPDQVSAVDSYYYDDGCEPCGNDTFNREPAIVRFFSRFTEVREFAIVPLHAAPGDAVAEIDALYDVYLDVQEKWGLEDVMLMGDFNAGCSYVRPSQWSSIRLWTSPTFQWLIPDSADTTATPTHCAYDRIVVAGMLLRGAVVPDSALPFNFQAAYGLSDQLAQAISDHYPVEVMLK

Tests used:
inflammation = conditions: ref [14]; cited from earlier work
From the text: (§1) In fact, platelets […] ...

elastase = biological target: T1, elastase; conditions: pathologic conditions associated with neutrophil dysfunction; ref [22]; cited from earlier work
From the text: Neutrophils also release granule contents containing enzymes such as elastase, proteinase-3, and cathepsin G. Elastase, a particularly inflammatory enzyme, interferes with thrombomodulin function, and cleaves TF pathway inhibitor (TFPI), the physiological inhibitor of the extrinsic pathway. […] Elastase also induces proteinase-activated receptor activation, contributes to cytokine production and processing, inactivates metalloprotease inhibitors, deg ...

baboons = conditions: NETs-related thrombosis, DNase treatment; ref [19]; cited from earlier work
From the text: as §1

neutrophils [1] = assay: Neutrophil-induced coagulation; assay type: cell-based, human; conditions: DNAse (Dornase alfa) 4 µg/ml, 1 h, then PMA 50 nM, 3 h
Method: A) Platelet aggregation. Washed human platelets were stimulated with elastase only (500 nM, left panel), or cathepsin G only (110 nM, middle tracing), or elastase followed by cathepsin G (right tracing). […] Aggregation response was monitored by turbidimetry using a Lumi-Aggregometer. D) TFPI cleavage. […] After 2 h, reactions were stopped by addition of LDS loading buffer (under reducing conditions, 10 mM DTT), boiled for 5 min, and loaded in 4–12% Nu-PAGE gel. Gels were Coomassie Blue-stained. E) Neutrophil-induced coagulation. […] Fifty µl of this suspension was added to 50 µl of plasma, and reactions were started by addition of CaCl2 (12.5 mM, final concentration)(*, p<0.05).
(§2) Whole blood (5 mL collected in 0.5 mL of 3.2% sodium citrate) from healthy donors was diluted in an equal volume of PBS, layered over 5 mL of HISTOPAQUE solution (10771, Sigma Aldrich), and centrifuged for 40 min, at 400×g, at room temperature. The lower interphase having granulocytes was collected and transferred to a 15-ml Falcon tube and resuspended in 10 ml ammonium chloride lysis buffer (1.7 M NH4Cl, […], 1 mM EDTA) to lyse red blood cells. Lysis was carried out twice followed by centrifugation for 10 min at 400×g. Neutrophils were washed with PBS and resuspended at 1×10^6 cells/mL in high glucose DMEM (GIBCO). Neutrophils were kept on ice. […]

neutrophils [2] = assay: NETs formation; assay type: cell-based, human; conditions: DNAse (Dornase alfa) 4 µg/ml; not shown
Method: Left panel, non-activated neutrophil (no PMA). Formation of NETs was visualized under confocal microscopy, using antibody against citrullinated histone. Representative experiment is shown (4 different donors). B) Quantification. Performed as described in Methods.
as §2, with “400×g.” for “400×g. Neutrophils were washed with PBS and resuspended at 1×10^6 cells/mL in high glucose DMEM (GIBCO). Neutrophils were kept on ice.”
Cells were fixed with 500 µl of 4% paraformaldehyde (final concentrations) for 10 min, washed 3 times with PBS and incubated for 10 min with blocking solution (PBS, 10%FBS, 5 mg/ml BSA). […] NETs were quantified according to Farley et al. Briefly, NETs were identified on digitalized images as Hoechst-positive fibrils emanating from cells with an overall length at least twice as long as the cell diameter and were counted for at least two fields of view per variable. Results were expressed as the percentage of NETs/total number of granulocytes.

Molecule | inflammation in several in vivo models (inflammation) | clinical trial results (elastase) | thrombosis in baboons (baboons) | pro-coagulant activity of PMA-activated neutrophils (neutrophils [1]) | NETs-associated fluorescence signal (neutrophils [2])
Elafin: potent elastase inhibitor purified from bronchial secretions (AQEPVKGPVSTKPGSCPIILIRCAMLNPPNRCLKDTDCPGIKKCCEGSCGMACFVPQ; ends and bridges not checked; cysteine pairing not given here; UniProt P19957 61-117, looked up) | blocks inflammation | mixed results | – | – | –
B1 | – | – | prevented | reversed | completely abrogated
